This is an account of results in paper PMC2658021.

The target in the assay is C-terminally FLAG-tagged HPIV3 P protein (P-FLAG) (human parainfluenza virus type 3 (HPIV3)) (UniProt P06162). As to the kind of experiment: co-IP.
UniProt P06162, sequence (P06162 whole entry): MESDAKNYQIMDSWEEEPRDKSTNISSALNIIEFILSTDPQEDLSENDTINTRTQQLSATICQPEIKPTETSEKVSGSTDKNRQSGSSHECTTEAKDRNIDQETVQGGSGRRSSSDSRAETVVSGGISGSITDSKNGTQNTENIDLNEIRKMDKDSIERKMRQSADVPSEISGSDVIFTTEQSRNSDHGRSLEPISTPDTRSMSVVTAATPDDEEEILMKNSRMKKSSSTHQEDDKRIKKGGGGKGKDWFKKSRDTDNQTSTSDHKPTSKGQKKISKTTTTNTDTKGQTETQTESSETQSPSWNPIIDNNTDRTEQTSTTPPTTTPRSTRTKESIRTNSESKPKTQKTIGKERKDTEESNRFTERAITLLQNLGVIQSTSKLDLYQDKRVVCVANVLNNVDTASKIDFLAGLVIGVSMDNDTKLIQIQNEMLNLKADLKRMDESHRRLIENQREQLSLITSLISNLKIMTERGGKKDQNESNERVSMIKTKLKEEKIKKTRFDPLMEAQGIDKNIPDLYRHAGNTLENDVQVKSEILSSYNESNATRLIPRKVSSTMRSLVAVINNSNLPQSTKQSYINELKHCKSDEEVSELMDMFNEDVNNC

Consider “L N960, non-tagged (from UniProt P12577 1-960) (domain or fragment)”, for which the binding as percent of Lwt (phosphoimager) is 26.8 % of Lwt.
